# From article PMC3056663, “A Bi-Functional Anti-Thrombosis Protein Containing Both Direct-Acting Fibrin(ogen)olytic and Plasminogen-Activating Activities” (PLoS ONE, 2011)
# Substrate: N=C(N)NCCC[C@H](NC(=O)c1ccccc1)C(=O)Nc1ccc([N+](=O)[O-])cc1
# Test: purified protein
# Type: biochemical, Eupolyphaga sinensis
# Conditions: 50 mM Tris-HCl, pH 7.8, 37°C
Protein,Km [mM],Vmax [µM/min],kcat/Km [M⁻¹ s⁻¹]
"native eupolytin1 (NE) (Eupolyphaga sinensis) (protein, mature protein of 227 residues, 27-residue signal peptide removed (precursor 254); purified natively from mid-gut; 26 kDa on SDS-PAGE) RIVGGSDANIEDLPYQLSFEYGGSHMCGASIISENWVVTAAHCVDGVSASSARFRAGSSVRGSGGSLHQATQLIANPQYDYYTIDYDVAVARVATPFSYGSGVQPISLISVEPSAGQTATVSGWGTFFSGGSLPRQLQVVSVPIVSPQQCNNDYASYGGITENMICAAEEQGGKDPCQGDSSGPLTVGGQLAGIVSWGAGCAQRGYPGVYSNVATLRKFITDETGVN",3.24,63000,1e+07
"recombinant eupolytin1 (RE) (Eupolyphaga sinensis) (protein, tag released by enterokinase; primer encodes DDDDK-IVGG at the cleavage site; Mono Q purified) IVGGSDANIEDLPYQLSFEYGGSHMCGASIISENWVVTAAHCVDGVSASSARFRAGSSVRGSGGSLHQATQLIANPQYDYYTIDYDVAVARVATPFSYGSGVQPISLISVEPSAGQTATVSGWGTFFSGGSLPRQLQVVSVPIVSPQQCNNDYASYGGITENMICAAEEQGGKDPCQGDSSGPLTVGGQLAGIVSWGAGCAQRGYPGVYSNVATLRKFITDETGVN",3.01,67200,8e+06
